Tests used:
hCCLZ (human myocilin …) = target: T1, hCCLZ (human myocilin coiled-coil/leucine zipper, residues 69-185) (human, UniProt Q99972 69-185); test: dot blot, purified construct
T1 construct: Made in E. coli (pET-30 XaLIC); Tags were cleaved for immunization and panning; the tagged form was used in cell-lysate dot blots; also called human coiled-coil/leucine zipper
T1 sequence: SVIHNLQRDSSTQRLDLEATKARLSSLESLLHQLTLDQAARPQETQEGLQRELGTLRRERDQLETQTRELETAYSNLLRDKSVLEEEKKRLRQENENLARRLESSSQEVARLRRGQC
Experimental: (§1) Dot Blots and Western Blots: Dot and western blots were conducted using protocols previously described in detail (Patterson-Orazem, et al., Exp Eye Res, 173:109-112 (2018)). Briefly, protein samples were immobilized on methanol-activated polyvinylidene difluoride membranes (Millipore®) by electrophoresis for Western blots and by direct deposition of 2 μL sample per dot for dot blots. Membranes were blocked overnight in 2% milk in PBS supplemented with 0.5% TWEEN-20, then probed with primary antibodies. Custom scAbs were tested at 1 μg/mL; IgGs were tested at 0.5 μg/mL to account for bivalency. Protein expression in cell lysates was confirmed using 1:1000 mouse anti-His antibody (RRID: AB_2533947). […] Custom scAbs were detected with 1:2000 (whole cell lysate dot blots) or 1:5000 (all other experiments) dilution of HRP-conjugated goat anti-human κ light chain secondary antibody (RRID: AB_619883). Binding of control antibodies and custom IgGs was detected using 1:2000 (whole cell lysate dot blots) or 1:5000 (all other experiments) dilution of HRP-conjugated goat anti-mouse IgG (H+L) secondary antibody (RRID: AB_2533947).
(§2) Conformational specificity was assessed by comparing results from dot blots (FIGS. 4A-4D) and Western blots (FIG. 4E-4H), experiments were conducted in parallel with specific quantities of purified myocilin constructs. […]

[1] = target: T2, hNTD (human myocilin N-terminal domain, residues 33-226) (human, UniProt Q99972 33-226); test: dot blot, purified construct
T2 construct: also called longer hNTD construct
T2 sequence: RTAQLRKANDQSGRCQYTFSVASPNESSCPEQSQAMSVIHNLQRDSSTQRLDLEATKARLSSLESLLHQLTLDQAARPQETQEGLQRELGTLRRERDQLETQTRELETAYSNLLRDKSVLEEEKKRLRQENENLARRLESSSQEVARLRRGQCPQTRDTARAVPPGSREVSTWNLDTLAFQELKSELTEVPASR
Experimental: as §1, §2

[2] = target: T3, mLZ (mouse myocilin leucine zipper, residues 93-171) (mouse, UniProt O70624 93-171); test: summary of ELISA and dot blot
T3 construct: Arose when Factor Xa cleaved mCCLZ after TLGR92; also called mouse leucine zipper; mouse LZ
T3 sequence: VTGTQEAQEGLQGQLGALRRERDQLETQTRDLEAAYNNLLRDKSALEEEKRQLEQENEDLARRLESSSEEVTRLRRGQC

[3] = target: T4, full-length endogenous human myocilin from spent medium of human trabecular meshwork (hTM) cells (human, UniProt Q99972 33-504); test: immunoprecipitation from spent hTM medium
T4 construct: Secreted protein; It was heparin-enriched for dot blots and used directly from spent medium for immunoprecipitation; also called full-length myocilin; hTM-secreted myocilin
T4 sequence: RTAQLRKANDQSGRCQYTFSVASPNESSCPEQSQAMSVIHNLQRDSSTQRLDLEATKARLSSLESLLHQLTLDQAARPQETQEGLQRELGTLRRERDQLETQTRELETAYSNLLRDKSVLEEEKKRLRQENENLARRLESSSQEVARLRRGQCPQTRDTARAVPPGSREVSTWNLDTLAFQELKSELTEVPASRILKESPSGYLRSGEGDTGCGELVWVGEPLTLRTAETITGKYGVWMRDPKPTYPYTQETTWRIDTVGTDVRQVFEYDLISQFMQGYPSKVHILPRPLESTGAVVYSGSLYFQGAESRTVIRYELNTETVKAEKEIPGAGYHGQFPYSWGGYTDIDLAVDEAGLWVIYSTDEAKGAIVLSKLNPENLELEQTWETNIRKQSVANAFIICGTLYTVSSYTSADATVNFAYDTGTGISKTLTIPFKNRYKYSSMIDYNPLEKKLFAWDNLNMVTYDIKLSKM
Experimental: Immunoprecipitation: Antibodies in IgG format (0.5 ng/ml) were incubated with 10 mL spent hTM medium (experiment) or 10 mL buffer control (50 mM HEPES pH 7.5, 200 mM NaCl, 10% glycerol) overnight at 4° C. on a rocker. Subsequently, Pierce™ Protein A/G Plus agarose suspension (50 μL, ThermoFisher Scientific®) was added, and samples were rocked an additional 2 hours at room temperature. Resin was pelleted by centrifugation (10 minutes at 1,000× g), washed at least 5 times with 500 uL buffer. Bound proteins were eluted by adding 50 μL 2× Laemmli buffer, incubated for 10 minutes at room temperature, followed by pelleting and removing the supernatant. Samples were supplemented to 3% v/v β-mercaptoethanol and heated 10 minutes at 95° C. prior to SDS-PAGE and Western blot analysis.

Measured: binding result

B1: 2A4 IgG (monoclonal antibody 2A4) (antibody, V domains shown)
VH: EVQLQQSGAELMRSGASVKLSCTASGFNIKDYYMHWVKQRPEQGLEWIGWIDPENGDTEYAPKFQGKATMTADTSSNTAYLQLSSLTSEDTAVYYCNPFVYWGQGTLVTVSA
VL: DIVMTQSQKFMSTSVGDRVSVTCKASQNVGTNVAWYQQKPGQSPKALIYSASYRYSGVPDRFTGSGSGTDFTLTISNVQSEDLAEYSCQQYNSYPYTFGGGTKLEIKR
notes: Full length chimeric human IgG1 with kappa light chain (IgG-Abvec and IgK-Abvec vectors), produced in CHO-K1 cells
binds: hCCLZ (human myocilin …) | [1] | [2] | [3]
